One experiment addresses recombinant human IL-17 (human, UniProt Q16552 24-155, limits assumed). As to the kind of experiment: SPR, BIAcore T200, antibody on chip, recombinant human antigen as analyte, steady state analysis; first value taken for antibody 1 arm (IL-17); IL-17 arm (Antibody 1), first value of the cell. On the technique in general: Surface plasmon resonance follows binding to a sensor surface in real time, without labels.

Experiment [1] addresses T1, recombinant human HER3 (human, UniProt P21860 20-643, limits assumed). As to the kind of experiment: SPR, BIAcore T200, antibody on chip, recombinant human antigen as analyte, steady state analysis; second value taken for antibody 2 arm (HER3); HER3 arm (Antibody 2), second value of the cell.
Description: (§1) A direct binding assay was performed to characterize the binding of the engineered antibodies against their antigen. Kinetic binding affinity constants (KD) were measured on protein-A captured protein using recombinant human antigens as analyte. Measurements were conducted on a BIAcore® T200 (GE Healthcare, Glattbrugg, Switzerland) at room temperature. […] To serve as reference, one flow cell was blank immobilized. Binding data were acquired by subsequent injection of analyte dilutions series on the reference and measuring flow cell. Zero concentration samples (running buffer only) were included to allow double referencing during data evaluation. For data evaluation, doubled referenced sensograms were used and analyzed by steady state analysis to generate the equilibrium dissociation constant (KD).
The target of experiment [2] is T2, recombinant human c-Kit (human, UniProt P10721 26-520, limits assumed). As to the kind of experiment: SPR, BIAcore T200, antibody on chip, recombinant human antigen as analyte, steady state analysis; first value taken for antibody 1 arm (c-Kit); c-Kit arm (Antibody 1), first value of the cell.
Description: as §1
In experiment [3] the target is T2, recombinant human c-Kit. Briefly: SPR, BIAcore T200, antibody on chip, recombinant human antigen as analyte, steady state analysis; second value taken for antibody 2 arm (c-Kit); c-Kit arm (Antibody 2), second value of the cell.
Description: as §1
Experiment [4] deals with T1, recombinant human HER3. Briefly: SPR, BIAcore T200, antibody on chip, recombinant human antigen as analyte, steady state analysis.
Description: as §1
The target in experiment [5] is T2, recombinant human c-Kit. The experiment is described as above.
Description: as §1

From US20190382475A1 (Novartis, published 2019) come the findings set out here.

Broadly, the Kd is the equilibrium constant for the complex coming apart.

Description for recombinant human IL-17: as §1

B1: Mutated IL-17/Mutated HER3 (b) heterodimeric antibody (bispecific antibody)
heavy 1: not shown
light 1: AIQLTQSPSSLSASVGDRVTITCRPSQGINWELAWYQDKPGKAPKLLIYDASSLEQGVPSRFSGSGSGTDFTLTISSLQPEDFATYYCQQFNSYPLTFGGGTKVEIKRTVAAPSVFIFPPSDEKLKSGTASVVCLLNNFYPREAKVQWKVDNALQSGNSQESVTEQDSDDSTYSLSSTLTLSKADYEKHKVYACEVTHQGLSSPVTKSFNRGEC
heavy 2: not shown
light 2: DIQMTQSPSSLSASVGDRVTITCRASQGISNWLAWYQKKPGKAPKLLIYGASSLQSGVPSRFSGSGSGTDFTLTISSLQPEDFATYYCQQYSSFPTTFGQGTKVEIKRTVAAPSVFIFPPSDEDLKSGTASVVCLLNNFYPREAKVQWKVDNALQSGNSQESVTEQDSKDSTYSLSSTLTLSKADYEKHKVYACEVTHQGLSSPVTKSFNRGEC
notes: IgG1 bispecific
In the case of B1, the Kd with recombinant human IL-17 was 0.01 nM; with recombinant human HER3 [1] it was 4 nM.

B2: Mutated c-Kit/Mutated HER3 (a) heterodimeric antibody (bispecific antibody)
heavy 1: not shown
light 1: DIQMTQSPSSLSASVGDRVTITCRASQSISSYLNWYQKKPGKAPKLLIYYTSRLQSGVPSRFSGSGSGTDFTLTISSLQPEDFATYYCQQGRRLWSFGGGTKVEIKRTVAAPSVFIFPPSDEDLKSGTASVVCLLNNFYPREAKVQWKVDNALQSGNSQESVTEQDSKDSTYSLSSTLTLSKADYEKHKVYACEVTHQGLSSPVTKSFNRGEC
heavy 2: not shown
light 2: DIQMTQSPSSLSASVGDRVTITCRASQGISNWLAWYQDKPGKAPKLLIYGASSLQSGVPSRFSGSGSGTDFTLTISSLQPEDFATYYCQQYSSFPTTFGQGTKVEIKRTVAAPSVFIFPPSDEKLKSGTASVVCLLNNFYPREAKVQWKVDNALQSGNSQESVTEQDSDDSTYSLSSTLTLSKADYEKHKVYACEVTHQGLSSPVTKSFNRGEC
notes: IgG1 bispecific
Regarding B2, the values for the Kd with recombinant human c-Kit [2] and with recombinant human HER3 [1] were 22 nM and 0.4 nM, respectively.

B3: Mutated IL-17/Mutated c-Kit heterodimeric antibody (bispecific antibody)
heavy 1: not shown
light 1: AIQLTQSPSSLSASVGDRVTITCRPSQGINWELAWYQDKPGKAPKLLIYDASSLEQGVPSRFSGSGSGTDFTLTISSLQPEDFATYYCQQFNSYPLTFGGGTKVEIKRTVAAPSVFIFPPSDEKLKSGTASVVCLLNNFYPREAKVQWKVDNALQSGNSQESVTEQDSDDSTYSLSSTLTLSKADYEKHKVYACEVTHQGLSSPVTKSFNRGEC
heavy 2: not shown
light 2: DIQMTQSPSSLSASVGDRVTITCRASQSISSYLNWYQKKPGKAPKLLIYYTSRLQSGVPSRFSGSGSGTDFTLTISSLQPEDFATYYCQQGRRLWSFGGGTKVEIKRTVAAPSVFIFPPSDEDLKSGTASVVCLLNNFYPREAKVQWKVDNALQSGNSQESVTEQDSKDSTYSLSSTLTLSKADYEKHKVYACEVTHQGLSSPVTKSFNRGEC
notes: IgG1 bispecific
In the case of B3, the Kd in the experiment with recombinant human IL-17 is 0.07 nM; with recombinant human c-Kit [3] it was 20 nM.

B4: anti-HER3 antibody, parental IgG1 (antibody, V domains shown)
VH: EVQLLESGGGLVQPGGSLRLSCAASGFTFSSYAMSWVRQAPGKGLEWVSVTGAVGRSTYYPDSVKGRFTISRDNSKNTLYLQMNSLRAEDTAVYYCARWGDEGFDIWGQGTLVTVSS
VL: DIQMTQSPSSLSASVGDRVTITCRASQGISNWLAWYQQKPGKAPKLLIYGASSLQSGVPSRFSGSGSGTDFTLTISSLQPEDFATYYCQQYSSFPTTFGQGTKVEIKR
notes: Parental, unmutated IgG1
Consider B4, for which the Kd in the experiment with recombinant human HER3 [4] was 1 nM.

B5: anti-c-Kit antibody, parental IgG1 (antibody, V domains shown)
VH: EVQLVESGGGLVQPGGSLRLSCAASGFAFSGYYMAWVRQAPGKGLEWVANINYPGSSTYYLDSVKGRFTISRDNAKNSLYLQMNSLRAEDTAVYYCARGDYYGTTYWYFDVWGQGTTVTVSS
VL: DIQMTQSPSSLSASVGDRVTITCRASQSISSYLNWYQQKPGKAPKLLIYYTSRLQSGVPSRFSGSGSGTDFTLTISSLQPEDFATYYCQQGRRLWSFGGGTKVEIKR
notes: Parental, unmutated IgG1, VH3/Vk1, made in-house
Regarding B5, the Kd with recombinant human c-Kit [5] came to 20 nM.
